Test results: patent US20170101476A1 (Novartis, published 2017)

T1: Human CXCR2 (human, UniProt P25025 1-360)
T1 sequence: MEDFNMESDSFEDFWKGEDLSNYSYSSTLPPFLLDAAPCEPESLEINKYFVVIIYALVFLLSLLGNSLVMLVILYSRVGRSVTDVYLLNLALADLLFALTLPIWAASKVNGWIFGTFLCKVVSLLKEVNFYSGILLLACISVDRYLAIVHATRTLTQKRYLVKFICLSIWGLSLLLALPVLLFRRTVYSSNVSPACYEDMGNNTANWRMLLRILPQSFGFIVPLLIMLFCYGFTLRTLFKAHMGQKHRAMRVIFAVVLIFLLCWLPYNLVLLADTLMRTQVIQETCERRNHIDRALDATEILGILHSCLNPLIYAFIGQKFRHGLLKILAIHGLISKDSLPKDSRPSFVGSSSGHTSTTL

T2: Cynomolgus CXCR2 (cynomolgus, UniProt Q28519 3-353 (rhesus entry))
T2 chain: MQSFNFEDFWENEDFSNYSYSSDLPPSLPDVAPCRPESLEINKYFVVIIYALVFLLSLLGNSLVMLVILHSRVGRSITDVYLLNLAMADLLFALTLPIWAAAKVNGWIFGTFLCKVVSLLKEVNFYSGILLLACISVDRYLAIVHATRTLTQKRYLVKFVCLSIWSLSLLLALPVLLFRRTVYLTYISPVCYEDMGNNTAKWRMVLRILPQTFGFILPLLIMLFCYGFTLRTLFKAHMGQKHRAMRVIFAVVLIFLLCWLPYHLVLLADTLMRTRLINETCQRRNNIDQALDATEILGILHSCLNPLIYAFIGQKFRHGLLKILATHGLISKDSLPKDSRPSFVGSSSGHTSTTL

B1: 163E03 (VHH, not shown: small tags and cut ends)
VHH: EVQLVESGGGLVQPGGSLRLSCVASGRIFSSNAMGWFRQAPGKEREFVAAITWRSGGSAYYADSAKGRFTISRDNAKNTVYLQMNSLKPEDTAVYYCAAGGSSWLSFPPDYWGQGTQVTVSS
B2: 54B12 (VHH, not shown: small tags and cut ends)
VHH: EVQLVESGGGLVQAGGSLTLSCAVSGSTFRINTMGWYRRAPGKQRELVAARDRGGYINYVDSVKGRFTVSRDNAKPTMYLQMNSLKPEDTAVYYCHAGTQDRTGRNFDRWGQGTQVTVSS
B3: 163D02 (VHH, not shown: small tags and cut ends)
VHH: EVQLVESGGGLVQAGGSLRLSCAASGRTFSDYAMGWFRQAPGKEREFVAAITWNGGRVFYTASVKGRFTISRDNAKNTMYLQMNSLKPEDTAVYYCAADKDRRTDYLGHPVAYWGQGTQVTVSS
B4: 2B2 (VHH, not shown: small tags and cut ends)
VHH: EVQLVESGGELVQPGGSLRLSCAASGSILTINAMGWYRQAPGKQRELVVRRTRGGSTTYQDSVKGRFTISADIAKKTMYLQMNSLKPEDTAVYYCMLDDRGGVYWGQGTQVTVSS
B5: 097A09 (VHH, not shown: small tags and cut ends)
VHH: EVQLVESGGGLVQPGGSLRLSCVASGSIVRINTMGWYRQTPGKQRELVADITSGGNINYIDAVKGRFTISRDNTKNTVYLQMNSLKPEDTAVYYCNAEIVVLVGVWTQRARTGNYWGQGTQVTVSS

biological target: T1, Human CXCR2; experiment: cell-based or functional assay

| Binder | Human Chemotaxis IC50 (GROα) | HumanWBSC IC50 (rhGROα) |
| --- | --- | --- |
| B1 | 1.3 nM | 9.4 nM |
| B2 |  | 19.7 nM |
| B3 |  | 6.6 nM |
| B4 | 50 nM | 29.5 nM |
| B5 | 4.8 nM | 11.6 nM |

Biological target: T2, Cynomolgus CXCR2
Experiment: cell-based or functional assay

| Binder | FLIPR IC50, GRO-α induced intracellular calcium release |
| --- | --- |
| B1 | 158 nM |
| B2 | 4080 nM |
| B3 | 37.2 nM |
| B4 | 3850 nM |
| B5 | 640 nM |

biological target: T1, Human CXCR2; experiment: cell-based or functional assay; remark: another data set of the same source

| Binder | FLIPR IC50, GRO-α induced intracellular calcium release | [35S]GTPγS % inhibition max, GRO-α | [35S]GTPγS accumulation IC50, GRO-α |
| --- | --- | --- | --- |
| B1 | 44.3 nM | 100% | 64.7 nM |
| B2 | 153 nM | 71.8% | 15.4 nM |
| B3 | 1.91 nM | 100% | 53.2 nM |
| B4 | 441 nM | 71.3% | 103 nM |
| B5 | 39.9 nM | 100% | 50.3 nM |
